Measured values reported in patent EP4611795A1.

Tests used:
[1] = target: human IgG (purified human IgG; IgG in human sera) (human); test: cell-based or functional assay
[2] = target: human IgM (purified human IgM, MilliporeSigma; IgM in human sera) (human); test: cell-based or functional assay
Chain of human IgM (purified human IgM, MilliporeSigma; IgM in human sera) (human) (heavy, as listed by the source): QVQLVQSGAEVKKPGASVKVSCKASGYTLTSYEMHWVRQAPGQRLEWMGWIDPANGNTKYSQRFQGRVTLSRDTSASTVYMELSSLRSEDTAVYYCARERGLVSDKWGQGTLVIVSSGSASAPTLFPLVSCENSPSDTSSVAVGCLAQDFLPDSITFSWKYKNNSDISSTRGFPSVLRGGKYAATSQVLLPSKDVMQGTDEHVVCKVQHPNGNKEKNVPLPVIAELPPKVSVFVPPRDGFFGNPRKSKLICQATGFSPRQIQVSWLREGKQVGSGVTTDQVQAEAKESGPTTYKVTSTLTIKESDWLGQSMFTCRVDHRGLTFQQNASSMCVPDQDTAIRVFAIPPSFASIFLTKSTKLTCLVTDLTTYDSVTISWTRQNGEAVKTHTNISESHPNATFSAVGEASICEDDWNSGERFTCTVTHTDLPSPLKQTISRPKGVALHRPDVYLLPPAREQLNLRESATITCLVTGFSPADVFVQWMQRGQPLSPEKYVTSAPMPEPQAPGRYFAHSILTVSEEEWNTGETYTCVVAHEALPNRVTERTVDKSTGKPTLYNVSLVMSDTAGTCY

IceMG (recombinant His-tagged fusion protein of IceM and IdeZ proteolytic domains with the rigid linker) (enzyme)
EC50 of IceMG enzymatic activity on IgG in human sera [1]: 4.7 nM
EC50 of IceMG enzymatic activity on IgM in human sera [2]: 0.07 nM
